Changes are numbered by the printed parent chain. Names may count otherwise.
T1: phosphorylated Mt-MviN KHD 681-963 (M. tuberculosis, UniProt P9WJK2 681-963, phosphothreonine at 947)
T1 sequence: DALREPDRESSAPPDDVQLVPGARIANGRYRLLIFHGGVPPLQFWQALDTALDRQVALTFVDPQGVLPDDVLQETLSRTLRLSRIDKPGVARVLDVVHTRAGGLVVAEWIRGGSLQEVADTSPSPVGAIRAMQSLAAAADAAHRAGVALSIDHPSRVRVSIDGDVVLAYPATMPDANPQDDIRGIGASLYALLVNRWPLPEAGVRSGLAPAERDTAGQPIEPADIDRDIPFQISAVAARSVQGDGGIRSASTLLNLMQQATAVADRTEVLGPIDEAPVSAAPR

B1: FhaA FHA domain Q461A (domain or fragment)
chain: PQGGGYAEPAGRDYDYGQSGAPDYGQPAPGGYSGYGQGGYGSAGTSVTLQLDDGSGRTYQLREGSNIIGRGADAQFRLPDTGVSRRHLEIRWDGQVALLADLNSTNGTTVNNAPVQEWQLADGDVIRLGHSEIIVR
B2: FhaA FHA domain R474A (domain or fragment)
chain: B1 chain with A72Q, R85A
B3: FhaA FHA domain R459A (domain or fragment)
chain: B1 chain with R70A, A72Q

Biological target: T1, phosphorylated Mt-MviN KHD 681-963
Assay: ITC

Binder	binding result	fold reduction of the binding affinity against the wild type [fold]
B1	binds	
B2		41
B3		> 170
